Results published in US20240209109A1.
Positions count from the first letter of the chain named.

Molecular target: human CD40-His protein (human) (UniProt P25942)
Test: SPR Biacore T200, antibody captured on Protein A, CD40-His injected

Chain of human CD40-His protein (human) (P25942 21-193 limits assumed): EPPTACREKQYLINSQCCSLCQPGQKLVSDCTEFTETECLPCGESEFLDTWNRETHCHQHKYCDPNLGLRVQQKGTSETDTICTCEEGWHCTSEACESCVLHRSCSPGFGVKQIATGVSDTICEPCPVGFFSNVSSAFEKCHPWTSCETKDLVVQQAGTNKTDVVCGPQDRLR

B1: 2p1130 anti-Claudin 18.2/CD40 bispecific antibody (bispecific antibody, part only; not given: Claudin 18.2 Fab arms, constant regions, linker, V domains shown, not shown: another chain or arm of the molecule; a dimerising Fc or GST; small tags and cut ends)
VHH: EVQVVESGGGLVQPGGSLRLTCAASGFSVDDYGIGWFRQAPGREREGVACITPNGLMMNFANTVGSVAGRFSASRDSGENTVSLQMSSLKPEDTAIYFCAHSRDDSCRGSLSDYDDWGQGTQVTVSS
Work on B1 yielded a Kd of 2770 nM, a koff of 0.0705 s⁻¹ and a kon of 25400 M⁻¹ s⁻¹.

B2: 2p931 anti-Claudin 18.2/CD40 bispecific antibody (bispecific antibody, part only; not given: Claudin 18.2 Fab arms, constant regions, linker, V domains shown, not shown: another chain or arm of the molecule; a dimerising Fc or GST; small tags and cut ends)
VHH: AVQLVESGGGLVQPGGSLRLSCAASGFSFRNYMMNWVRQAPGKGLECLSSITSAGDITSYTESVKGRFTISRDNAKNTLYLQMNSLKPEDTAVYYCAQGGCGNYYRESWGQGTQVTVSS
Binder B2 has a Kd of 86.2 nM, a koff of 0.00409 s⁻¹ and a kon of 47400 M⁻¹ s⁻¹.

B3: 2p957 anti-Claudin 18.2/CD40 bispecific antibody (bispecific antibody, part only; not given: Claudin 18.2 Fab arms, constant regions, linker, V domains shown, not shown: another chain or arm of the molecule; a dimerising Fc or GST; small tags and cut ends)
VHH: B2 VHH with A1P, M33I, N35S, C47W, S53N, A54S, D56G, C101S, G102D, E107G
For B3, the Kd was 2310 nM, the koff was 0.107 s⁻¹ and the kon was 46400 M⁻¹ s⁻¹.

B4: 42p495 anti-Claudin 18.2/CD40 bispecific antibody (bispecific antibody, part only; not given: Claudin 18.2 Fab arms, constant regions, linker, V domains shown, not shown: another chain or arm of the molecule; a dimerising Fc or GST; small tags and cut ends)
VHH: PVQLVESGGNLVQPGGSLRLSCVAPGFTSRNSAMSWVRQAPGKGLEWVSTIYSGKSNTDYADSVKGRFTISTDNAKNTLYLHMNKLKSEDTAVYYCAKGAASDWYVPRDYWGQGTQVTVSS
B4 showed a Kd of 935 nM, a koff of 0.0118 s⁻¹ and a kon of 12700 M⁻¹ s⁻¹.

B5: 42p155 anti-Claudin 18.2/CD40 bispecific antibody (bispecific antibody, part only; not given: Claudin 18.2 Fab arms, constant regions, linker, V domains shown, not shown: another chain or arm of the molecule; a dimerising Fc or GST; small tags and cut ends)
VHH: PSQLVESGGGLVQPGGSLRLSCAASGFAFRSYTMSWVRQAPGKGLEWVSTITHNGAITTYAESAQGRFTISRDNAKNTLYLQMNSLKPEDTAVYYCAQGGGSNYYRESWGQGTQVTVSS
Work on B5 yielded a Kd of 760 nM, a koff of 0.0374 s⁻¹ and a kon of 49100 M⁻¹ s⁻¹.

B6: 2p1294 anti-Claudin 18.2/CD40 bispecific antibody (bispecific antibody, part only; not given: Claudin 18.2 Fab arms, constant regions, linker, V domains shown, not shown: another chain or arm of the molecule; a dimerising Fc or GST; small tags and cut ends)
VHH: B5 VHH with P1Q, S2V, A28S, S31R, T50A, T52S, H53D, A61T
B6 showed a Kd of 182 nM, a koff of 0.0187 s⁻¹ and a kon of 103000 M⁻¹ s⁻¹.

B7: 42p655 anti-Claudin 18.2/CD40 bispecific antibody (bispecific antibody, part only; not given: Claudin 18.2 Fab arms, constant regions, linker, V domains shown, not shown: another chain or arm of the molecule; a dimerising Fc or GST; small tags and cut ends)
VHH: B5 VHH with P1A, S2V, S31R, T50S, H53D, A56S, Y95H
For B7, the Kd was 47.5 nM, the koff was 0.00442 s⁻¹ and the kon was 93100 M⁻¹ s⁻¹.

B8: 3p78 anti-Claudin 18.2/CD40 bispecific antibody (bispecific antibody, part only; not given: Claudin 18.2 Fab arms, constant regions, linker, V domains shown, not shown: another chain or arm of the molecule; a dimerising Fc or GST; small tags and cut ends)
VHH: B5 VHH with S2V, A28T, S31N, T33A
With B8 the Kd was 2490 nM, the koff was 0.107 s⁻¹ and the kon was 42700 M⁻¹ s⁻¹.

B9: 2p834 anti-Claudin 18.2/CD40 bispecific antibody (bispecific antibody, part only; not given: Claudin 18.2 Fab arms, constant regions, linker, V domains shown, not shown: another chain or arm of the molecule; a dimerising Fc or GST; small tags and cut ends)
VHH: B5 VHH with P1Q, S31R, A56S
Work on B9 yielded a Kd of 90.6 nM, a koff of 0.0084 s⁻¹ and a kon of 92700 M⁻¹ s⁻¹.

B10: 2p415 anti-Claudin 18.2/CD40 bispecific antibody (bispecific antibody, part only; not given: Claudin 18.2 Fab arms, constant regions, linker, V domains shown, not shown: another chain or arm of the molecule; a dimerising Fc or GST; small tags and cut ends)
VHH: QLHFVESGGGLVQPGGSLRLSCAASGFTLDHYAMGWFRQAPGKEREGVSCISGGGSTRYADSAKGRFTISRDNAKNTVYLQMNSLTPEDTAVYYCAAARLLSRNCVPRDSGSWGQGTQVTVSS
Work on B10 yielded a Kd of 754 nM, a koff of 0.0447 s⁻¹ and a kon of 59300 M⁻¹ s⁻¹.

B11: 2p442 anti-Claudin 18.2/CD40 bispecific antibody (bispecific antibody, part only; not given: Claudin 18.2 Fab arms, constant regions, linker, V domains shown, not shown: another chain or arm of the molecule; a dimerising Fc or GST; small tags and cut ends)
VHH: B10 VHH with L2V, H3Q, F4L, A23V, H31Y, Y32F, M34I, A63V
B11 showed a Kd of 1030 nM, a koff of 0.045 s⁻¹ and a kon of 43700 M⁻¹ s⁻¹.

B12: 2p551 anti-Claudin 18.2/CD40 bispecific antibody (bispecific antibody, part only; not given: Claudin 18.2 Fab arms, constant regions, linker, V domains shown, not shown: another chain or arm of the molecule; a dimerising Fc or GST; small tags and cut ends)
VHH: B10 VHH with H31Y, M34I, A63V, R103T
Work on B12 yielded a Kd of 492 nM, a koff of 0.0177 s⁻¹ and a kon of 36100 M⁻¹ s⁻¹.
